Source: article PMC6180428

Target: NagA-GFP-His6 fusion protein (N-acetylglucosamine-6-phosphate deacetylase from Mycobacterium smegmatis with C-terminal TEV-cleavable GFP-His6) (Mycobacterium smegmatis)
Assay: SEC; Superdex 200 16/60, 20 mM Bis-Tris, 300 mM NaCl, 10% glycerol pH 8.0; oligomeric state from the elution profile

stoichiometry N: 2
Substance: NagA-GFP-His6 fusion protein (N-acetylglucosamine-6-phosphate deacetylase from Mycobacterium smegmatis with C-terminal TEV-cleavable GFP-His6) (enzyme)
